Publication PMC4159350, “Structure of the N-Terminal Gyrase B Fragment in Complex with ADP⋅Pi Reveals Rigid-Body Motion Induced by ATP Hydrolysis” (PLoS ONE, 2014)

Target: the molecule itself
Assay: crystal structure; GyrB43 incubated with a 15 fold molar excess of ATP and MgCl2 (hydrolysed to ADP.Pi), 50 mM Na-phosphate buffer; sitting drop, 20°C, 0.1 M tri-ammonium citrate pH 6.5, 25% PEG 2000; space group C2221, 1.8 Å; dimer by the crystallographic dyad

B1: 43 kDa N-terminal fragment of GyrB from E. coli (GyrB43) (domain or fragment)
chain: not shown
notes: DNA gyrase subunit B (GyrB), E. coli, residues 1-392, comprising the ATPase domain (20-220) and the transducer domain (221-392); amplified from E. coli genomic DNA; By the forward primer the His6 codons follow the start ATG and are followed by the codons of S2, N3, S4, Y5; No removal of the tag is described; The dimer is formed by a crystallographic two-fold axis (one monomer per asymmetric …)
  binding result: binds
